T1: human CD20 on Raji B lymphoma cells (human, UniProt P11836 1-297)
T1 construct: whole, on cells; also called hCD20
T1 sequence (looked up): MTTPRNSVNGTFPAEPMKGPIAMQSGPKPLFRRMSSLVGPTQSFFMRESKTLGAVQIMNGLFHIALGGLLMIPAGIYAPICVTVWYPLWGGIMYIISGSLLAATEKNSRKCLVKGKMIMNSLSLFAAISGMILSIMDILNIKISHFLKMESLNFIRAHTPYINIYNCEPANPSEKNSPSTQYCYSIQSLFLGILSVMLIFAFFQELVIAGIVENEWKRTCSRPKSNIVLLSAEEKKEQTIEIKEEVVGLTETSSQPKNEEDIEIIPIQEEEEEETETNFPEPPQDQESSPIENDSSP

T2: mouse CD20 on transfected HEK293T cells (mouse, UniProt P19437 1-291)
T2 construct: whole, on cells; Expressed from pCMV5 mCD20 in HEK293T cells; also called mCD20; MS4A1
T2 sequence (looked up): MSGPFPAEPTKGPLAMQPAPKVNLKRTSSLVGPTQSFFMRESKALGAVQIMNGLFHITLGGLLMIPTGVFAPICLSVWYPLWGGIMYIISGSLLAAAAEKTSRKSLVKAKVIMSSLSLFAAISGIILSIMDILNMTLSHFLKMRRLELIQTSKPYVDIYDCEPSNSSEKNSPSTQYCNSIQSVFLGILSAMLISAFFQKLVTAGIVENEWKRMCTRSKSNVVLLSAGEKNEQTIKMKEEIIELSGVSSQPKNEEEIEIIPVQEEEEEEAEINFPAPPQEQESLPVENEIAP

B1: AC1 (chicken-derived anti-hCD20 mAb, chicken-human chimeric) (antibody, human IgG1, V domains shown)
VH: AVTLDESGGGLQTPGGGLSLVCKASGFDFSSYAMVWVRQAPGKGLEYVGEITNYAAGSGTWYGAAVKGRATISRDNGQSTVRLQLNNLRAEDTATYYCAKGPISGSIGYLSSIDAWGHGTEVIVSS
VL: ALTQPSSVSANPGETVKITCSGGSSRYGYGWYQQKSPGSAPVTVIYWNDKRPSDIPSRFSGSKSGSTGTLTITGVRAEDEAVYYCGNYDNNDPAFGAGTTLTVL
modifications: Atto 488 NHS-ester label on lysines in the direct immunofluorescence and mCD20 assays (positions not defined)
notes: Chicken VH fused to human CH1 and CH2-CH3 of human IgG1; chicken VL fused to human kappa constant domain; made in Expi293F cells; also called chAC1
B2: ACR7 (chicken-derived anti-hCD20 mAb, chicken-human chimeric) (antibody, human IgG1, V domains shown)
VH: AVTLDESGGGLQTPGGALSLVCKASGFTFNSNGMGWVRQAPGKGLEWVAGIHSSGRYTYYGTAVKGRATISRDNGQSTVRLQLNDLRAEDTATYYCAKNADSAYGYWYAGSIDAWGHGTEVIVSS
VL: ALTQPSSVSANLGGTVEITCSGGYSSYGYSWHQQKSPASAPVTLIYNNNNRPSDIPSRFSGSASGSTATLTITGVQAEDEAVYYCAFTDYSSLAGVFGAGTTLTVL
modifications: Atto 488 NHS-ester label on lysines in the direct immunofluorescence and mCD20 assays (positions not defined)
notes: Chicken VH fused to human CH1 and CH2-CH3 of human IgG1; chicken VL fused to human kappa constant domain; made in Expi293F cells; also called chACR7
B3: AC11 (chicken-derived anti-hCD20 mAb, chicken-human chimeric) (antibody, human IgG1, V domains shown)
VH: AVTLDESGGGLQTPGGALSLVCKASGFDFSSSYINWVRQAPGKGLEYVAQINKDGGGSWYAPVVKGRATISRDNGQSTVRLQLSNLRAEDTGIYFCAKNADSGCVGVGGCIDTWGHGTEVIVSS
VL: ALTQPSSVSANPGETVKITCSGGSYYYGGNYYYGWYQQKSPGSAPVTLIYNNNKRPSDIPSRFSGSTSGSTGTLTITGVQADDEAVYYCGGYDSSYVAIFGAGTTLTVL
modifications: Atto 488 NHS-ester label on lysines in the direct immunofluorescence and mCD20 assays (positions not defined)
notes: Chicken VH fused to human CH1 and CH2-CH3 of human IgG1; chicken VL fused to human kappa constant domain; made in Expi293F cells; also called chAC11; parental AC11
B4: Rituximab (antibody, V domains shown)
VH: QVQLQQPGAELVKPGASVKMSCKASGYTFTSYNMHWVKQTPGRGLEWIGAIYPGNGDTSYNQKFKGKATLTADKSSSTAYMQLSSLTSEDSAVYYCARSTYYGGDWYFNVWGAGTTVTVSA
VL: QIVLSQSPAILSASPGEKVTMTCRASSSVSYIHWFQQKPGSSPKPWIYATSNLASGVPVRFSGSGSGTSYSLTISRVEAEDAATYYCQQWTSNPPTFGGGTKLEIK
B5: ACR8 (chicken-derived anti-hCD20 mAb, chicken-human chimeric) (antibody, human IgG1, V domains shown)
VH: AVTLDESGGGLQTPGGALSLVCKASGFSFDRHGMFWVRQAPGKGLEWVAGIRSTGSYPKYGPAVKGRATISRDNGQSTVRLQLNNLRAEDTARYFCVRNVYIGDYDGDSIDAWGHGTEVIVSS
VL: ALTQPSSVSANLGGTVEITCSGSSSGYGSYYGWYQQKSPGSAPVTVIYENTNRPSNIPSRFSGSESGSTATLTITGVQAEDEAVYFCGSADDSGNSAIFGAGTTLTVL
modifications: Atto 488 NHS-ester label on lysines in the direct immunofluorescence and mCD20 assays (positions not defined)
notes: Chicken VH fused to human CH1 and CH2-CH3 of human IgG1; chicken VL fused to human kappa constant domain; made in Expi293F cells; also called chACR8
B6: hAC11-10 (humanized variant of mAb AC11) (antibody, V domains shown)
VH: EVQLVESGGGLVQPGGSLRLSCKASGFTFSSSYINWVRQAPGKGLEYVAQINKDGGGSWYAPVVKGRFTISRDNAKNTVYLQMNSLRAEDTAVYYCAKNADSGCVGVGGCIDTWGQGTTVTVSS
VL: SYELTQPSSVSVSPGQTVRITCSGGSYYYGGNYYYGWYQQKPGQAPVTVIYNNNKRPSGIPERFSGSNSGNTGTLTISGVQAEDEADYYCGGYDSSYVAIFGGGTKLTVL
notes: Humanized variable regions; constant regions not restated for this variant (the parental format is human IgG1 with a human kappa constant domain)

Biological target: T1, human CD20 on Raji B lymphoma cells
Test: flow cytometry on Raji cells, direct immunofluorescence with A488-labeled Ab, MFI against concentration, 5PL fit [panel A]
Description: Raji cells were incubated with A488-labeled anti-hCD20 Abs followed by washing and flow cytometric analysis using a BD LSRFortessa X-20 instrument. The median fluorescence intensities (MFIs) of Ab-coated cells were determined using FlowJo software and fitted to an asymmetric sigmoidal 5PL curve using GraphPad Prism. Data are the mean±SD of duplicate measurements and are from one of two independent, representative experiments.

| Binder | EC50 [µg/mL] |
| --- | --- |
| B1 | 2.5 |
| B2 | 7.3 |
| B3 | 5.7 |
| B4 | 5.6 |
| B5 | 2 |

Biological target: T1, human CD20 on Raji B lymphoma cells
Test: cell-based or functional assay

| Binder | ADCC signaling, ADCC reporter bioassay (FcgRIIIa V158 Jurkat pseudoeffector cells, Raji targets; fold over Rituximab) | target cell lysis, PBMC ADCC bioassay on Raji cells (fold over Rituximab) |
| --- | --- | --- |
| B1 | > 100 fold relative to Rituximab | ~10 fold relative to Rituximab |
| B2 | > 100 fold relative to Rituximab | ~10 fold relative to Rituximab |
| B3 | > 100 fold relative to Rituximab | ~10 fold relative to Rituximab |
| B5 | > 100 fold relative to Rituximab | ~10 fold relative to Rituximab |

Biological target: T2, mouse CD20 on transfected HEK293T cells
Test: flow cytometry with Atto 488-labeled Ab on HEK293T cells transfected with pCMV5-mCD20 versus pCMV5 (mock)
Description: The identity of the Abs is indicated at the top. Anti-mCD20: commercially obtained anti-mCD20 Ab (eBioscience/Thermo Fisher). Data are from one of two independent, representative experiments.
Cross-reactivity of anti-hCD20 mAbs with mouse CD20: HEK293T cells in P100 tissue culture dishes were transfected at 70-90% confluency with […] pCMV5 mCD20 expression plasmid or parental pCMV5 (mock transfection) using jetOPTIMUS (Polyplus-transfection) reagent per the manufacturer's recommended protocol at a 1:1 jetOPTIMUS:DNA (L: g) ratio. Two days post transfection, the supernatant on the transfected cells was aspirated and the cells dislodged by vigorous pipetting with DPBS (HyClone). The cells were pelleted by centrifugation and the buffer replaced with 8 mL chilled blocking buffer (DPBS/10% FBS). The cells were blocked with gentle rocking at 4° C. for 30 minutes. […] of the blocked cells were transferred to individual wells of a conical-bottom 96-well plate and the cells were pelleted by centrifugation prior to incubation with […] of […] A488-labeled anti-hCD20 Abs or […] A488-labeled anti-mouse CD20 Ab (eBioscience/Thermo Fisher) at 4° C. with rocking for 1 hour. The Ab-coated cells were washed three times with cold DPBS/1% BSA and resuspended in […] DPBS/1% BSA prior to flow cytometric analysis in the FITC channel using a BD LSRFortessa X-20 cytometer. Histogram plots were generated with Flowing Software v2.5.1 (University of Turku).

| Binder | binding result |
| --- | --- |
| B2 | no binding |
| B3 | no binding |
| B5 | no binding |

Biological target: T1, human CD20 on Raji B lymphoma cells
Test: flow cytometry on Raji cells, indirect immunofluorescence (Atto 488-labeled anti-human Fc secondary Ab), MFI against concentration, 5PL fit
Description: The median fluorescence intensity (MFI) of Ab-coated cells was determined using FlowJo software. Data for the lowest mAb concentration derives from cells incubated with just buffer (no Ab). […] Values are the mean±SD of duplicate measurements.
(§1) Binding of anti-hCD20 mAbs to Raji cells: Anti-hCD20 Abs diluted in DPBS/1% bovine serum albumin (BSA) were incubated with 6×10⁵ Raji cells in V-bottom 96-well plates at 4° C. for 1 hour in a final volume of […]. […] Binding of mAbs to live single cells gated by light scatter characteristics was measured using a BD LSRFortessa X-20 flow cytometer. The binding of bacteriophage displaying the Fab portions of the chicken Abs to hCD20-transfected Chinese hamster ovary (CHO) cells was also measured (FIG. 4).

| Binder | EC50 [µg/mL] |
| --- | --- |
| B1 | 1.8 |
| B2 | 5.9 |
| B3 | 3.2 |
| B4 | 4.5 |
| B5 | 2 |

Biological target: T1, human CD20 on Raji B lymphoma cells
Test: flow cytometry on Raji cells (binding/hCD20 receptor occupancy), A488-labeled secondary anti-human IgG Fcγ Ab, MFI against concentration, 5PL fit
Description: The experiment was carried out by detection of bound unlabeled anti-hCD20 Abs using A488-labeled secondary anti-human IgG Fcγ Ab. Median fluorescence values from flow cytometry were obtained using FlowJo software. EC₅₀ values were generated from an asymmetric sigmoidal 5PL fit using GraphPad Prism. Data are from one of two independent, representative experiments. […] All statistical analyses were by unpaired t test.

| Binder | EC50 [µg/mL] |
| --- | --- |
| B6 | 3.5 |
| B4 | 4.5 |

Biological target: T1, human CD20 on Raji B lymphoma cells
Test: flow cytometry on Raji cells, indirect immunofluorescence (Atto 488-labeled anti-human Fc secondary Ab), median fluorescence intensity
Description: Median fluorescence intensities (MFIs) from histograms calculated using FlowJo software were used to generate the binding curves in FIG. 8. The identity and concentration of the Ab and calculated MFI is shown in the insets of histograms.
as §1

| Binder | MFI at 16.7 µg/mL |
| --- | --- |
| B1 | 20000 |
| B2 | 18000 |
| B3 | 19000 |
| B4 | 14000 |
| B5 | 21000 |

Reference: US20260055202A1 (TEXAS A AND M UNIVERSITY SYSTEM, published 2026)
